Experimental data as given in publication PMC2581641 (Molecular microbiology, 2008).
Positions count from the first letter of the chain named.

B1: α-Pa σ^70 region 2 fusion protein (domain or fragment, P. aeruginosa, UniProt P26480 96-450, looked up)
chain: TTDPVRMYMREMGTVELLTREGEIEIAKRIEEGIREVMSAIAQFPGTVDSILADYNRIVAEGGRLSDVLSGYIDPDDGSLPAEEVEPVNLKDDSADSKEKDDEEEESDDSSDSDDEGDGGPDPEEARLRFTAVSEQLDKAKKALKKHGRGSKQATAELTGLAELFMPIKLVPKQFDALVARVRSALEGVRAQERAIMQLCVRDARMPRADFLRLFPNHETDEKWVDSVLKSKPKYAEAIERLRDDILRNQQKLAALESEVELTVAEIKEINRAMSIGEAKARRAKKEMVEANLRLVISIAKKYTNRGLQFLDLIQEGNIGLMKAVDKFEYRRGYKFSTYATWWIRQAITRSIADQ
B2: α-σ^70 region 2 fusion protein (domain or fragment, E. coli, UniProt P00579 94-448, looked up)
chain: TTDPVRMYMREMGTVELLTREGEIDIAKRIEDGINQVQCSVAEYPEAITYLLEQYDRVEAEEARLSDLITGFVDPNAEEDLAPTATHVGSELSQEDLDDDEDEDEEDGDDDSADDDNSIDPELAREKFAELRAQYVVTRDTIKAKGRSHATAQEEILKLSEVFKQFRLVPKQFDYLVNSMRVMMDRVRTQERLIMKLCVEQCKMPKKNFITLFTGNETSDTWFNAAIAMNKPWSEKLHDVSEEVHRALQKLQQIEEETGLTIEQVKDINRRMSIGEAKARRAKKEMVEANLRLVISIAKKYTNRGLQFLDLIQEGNIGLMKAVDKFEYRRGYKFSTYATWWIRQAITRSIADQAR

Assays:
Test in all cases: two-hybrid
[1] = biological target: T1, λCI-AlgQ fusion protein (P. aeruginosa, UniProt P15275 1-160)
T1 sequence (looked up): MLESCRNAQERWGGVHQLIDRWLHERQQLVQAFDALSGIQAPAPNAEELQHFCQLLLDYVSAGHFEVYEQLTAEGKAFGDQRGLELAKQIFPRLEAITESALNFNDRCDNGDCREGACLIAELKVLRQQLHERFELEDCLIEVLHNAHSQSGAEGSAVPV

[2] = biological target: T2, λCI-Rsd fusion protein with substitutions G14E and Y34F (E. coli, UniProt P0AFX4 1-158, G14E | Y34F)
T2 sequence (looked up): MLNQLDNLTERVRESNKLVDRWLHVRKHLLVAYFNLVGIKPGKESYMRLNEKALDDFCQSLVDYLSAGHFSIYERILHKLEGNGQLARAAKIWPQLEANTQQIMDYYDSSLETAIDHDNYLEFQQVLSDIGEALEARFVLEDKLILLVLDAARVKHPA

[3] = biological target: T3, λCI-Rsd fusion protein with substitution Y34F (E. coli, UniProt P0AFX4 1-158, Y34F)
T3 sequence (looked up): T2 sequence (looked up) with E14G

[4] = biological target: T4, λCI-Rsd fusion protein with substitution G14E (E. coli, UniProt P0AFX4 1-158, G14E)
T4 sequence (looked up): T2 sequence (looked up) with F34Y

| Binder | fold activation of lacZ transcription [1] | fold activation of lacZ transcription [2] | fold activation of lacZ transcription [3] | fold activation of lacZ transcription [4] |
| --- | --- | --- | --- | --- |
| B1 | ~14 fold |  |  |  |
| B2 |  | ~12 fold | ~9 fold | ~10 fold |
